T1: Vtc1/Vtc3/Vtc4 complex (VTC complex) (Saccharomyces cerevisiae, UniProt P47075+Q02725)
T1 construct: full-length subunits co-expressed in Expi293F; Vtc1 C-terminal HA, Vtc3 N-terminal 3xFlag, Vtc4 C-terminal 2xStrep; detergent-purified; 3:1:1 pentamer; with Vacuolar transporter chaperone complex subunit 1
T1 sequence (P47075 1-721): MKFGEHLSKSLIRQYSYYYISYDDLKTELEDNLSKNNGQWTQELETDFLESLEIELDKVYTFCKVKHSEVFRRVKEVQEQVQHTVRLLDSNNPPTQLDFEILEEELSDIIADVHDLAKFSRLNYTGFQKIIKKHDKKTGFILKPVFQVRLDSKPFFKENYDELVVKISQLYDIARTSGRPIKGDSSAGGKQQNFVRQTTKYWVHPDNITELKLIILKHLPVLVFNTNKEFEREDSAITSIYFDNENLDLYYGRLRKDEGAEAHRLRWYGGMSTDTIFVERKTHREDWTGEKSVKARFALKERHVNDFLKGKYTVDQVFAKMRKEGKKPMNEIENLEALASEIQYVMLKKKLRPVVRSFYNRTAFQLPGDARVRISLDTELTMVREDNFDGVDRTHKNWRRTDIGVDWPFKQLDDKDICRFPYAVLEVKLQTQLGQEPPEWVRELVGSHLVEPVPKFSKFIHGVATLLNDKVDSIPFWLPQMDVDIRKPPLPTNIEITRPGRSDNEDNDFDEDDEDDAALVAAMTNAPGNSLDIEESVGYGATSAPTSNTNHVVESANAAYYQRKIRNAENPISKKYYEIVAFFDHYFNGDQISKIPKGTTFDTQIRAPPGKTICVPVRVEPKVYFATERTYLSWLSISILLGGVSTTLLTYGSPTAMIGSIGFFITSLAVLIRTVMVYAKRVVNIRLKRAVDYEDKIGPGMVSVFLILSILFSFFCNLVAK
T1 sequence (Q02725 1-835): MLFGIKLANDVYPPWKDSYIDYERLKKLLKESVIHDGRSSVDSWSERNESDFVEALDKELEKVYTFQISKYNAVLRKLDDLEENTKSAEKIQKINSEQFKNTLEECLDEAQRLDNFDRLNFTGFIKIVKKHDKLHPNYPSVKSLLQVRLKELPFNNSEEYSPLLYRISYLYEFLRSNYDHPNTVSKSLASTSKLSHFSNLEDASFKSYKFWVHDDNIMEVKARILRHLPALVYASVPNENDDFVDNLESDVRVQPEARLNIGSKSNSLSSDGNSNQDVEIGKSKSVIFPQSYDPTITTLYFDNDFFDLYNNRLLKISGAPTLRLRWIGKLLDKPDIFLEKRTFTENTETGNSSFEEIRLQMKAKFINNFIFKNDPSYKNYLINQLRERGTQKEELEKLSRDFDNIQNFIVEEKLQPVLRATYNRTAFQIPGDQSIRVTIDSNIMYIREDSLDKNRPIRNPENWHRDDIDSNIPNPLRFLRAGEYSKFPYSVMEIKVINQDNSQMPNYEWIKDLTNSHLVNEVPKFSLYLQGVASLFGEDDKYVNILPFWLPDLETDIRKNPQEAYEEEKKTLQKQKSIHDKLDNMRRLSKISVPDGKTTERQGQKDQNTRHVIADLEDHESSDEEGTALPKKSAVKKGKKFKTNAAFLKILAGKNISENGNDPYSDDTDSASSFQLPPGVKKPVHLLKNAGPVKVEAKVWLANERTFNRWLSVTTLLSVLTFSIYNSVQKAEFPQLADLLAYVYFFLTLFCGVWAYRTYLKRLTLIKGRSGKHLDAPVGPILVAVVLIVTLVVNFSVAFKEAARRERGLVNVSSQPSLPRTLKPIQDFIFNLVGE
T1 sequence (P40046 2-129 partner): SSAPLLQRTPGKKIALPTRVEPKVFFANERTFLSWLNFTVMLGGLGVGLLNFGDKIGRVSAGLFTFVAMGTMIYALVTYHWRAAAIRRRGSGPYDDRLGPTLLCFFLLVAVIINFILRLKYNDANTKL

T2: Vtc3 (Baker's yeast, UniProt Q02725 1-835)
T2 construct: Vtc3, yeast, UniProt Q02725; codon-optimized DNA in the pMlink vector; source: Expi293F cells, transiently cotransfected with the Vtc1 and Vtc4 plasmids; purified as part of the VTC complex (anti-Flag resin, Strep-Tactin resin; SEC for the cryo-EM sample); not shown: 3×Flag, N-terminal, kept
T2 sequence: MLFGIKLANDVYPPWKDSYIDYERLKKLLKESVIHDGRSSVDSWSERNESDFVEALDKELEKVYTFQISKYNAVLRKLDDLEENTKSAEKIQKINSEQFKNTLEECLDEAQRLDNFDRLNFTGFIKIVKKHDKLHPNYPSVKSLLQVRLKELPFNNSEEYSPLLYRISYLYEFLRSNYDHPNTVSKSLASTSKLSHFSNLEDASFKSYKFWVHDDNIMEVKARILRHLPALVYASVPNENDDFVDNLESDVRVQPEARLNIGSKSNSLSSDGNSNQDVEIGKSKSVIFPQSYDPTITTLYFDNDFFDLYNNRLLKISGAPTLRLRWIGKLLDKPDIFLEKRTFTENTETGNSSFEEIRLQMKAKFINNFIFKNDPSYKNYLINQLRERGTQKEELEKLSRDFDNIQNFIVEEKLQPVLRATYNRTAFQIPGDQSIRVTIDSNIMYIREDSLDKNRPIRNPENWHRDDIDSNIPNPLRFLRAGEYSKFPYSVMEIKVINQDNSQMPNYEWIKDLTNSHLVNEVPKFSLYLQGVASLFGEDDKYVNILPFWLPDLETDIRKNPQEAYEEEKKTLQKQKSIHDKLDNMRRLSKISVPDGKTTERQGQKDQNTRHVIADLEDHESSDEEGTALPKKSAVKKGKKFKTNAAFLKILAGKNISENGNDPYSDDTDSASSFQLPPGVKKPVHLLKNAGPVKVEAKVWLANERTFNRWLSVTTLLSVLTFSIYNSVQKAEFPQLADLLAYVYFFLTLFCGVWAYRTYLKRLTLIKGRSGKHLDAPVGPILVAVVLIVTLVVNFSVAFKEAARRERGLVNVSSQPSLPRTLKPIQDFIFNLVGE

B1: Vtc4_(R264A/R266A/E426N) (natural protein, Baker's yeast)
chain: KFGEHLSKSLIRQYSYYYISYDDLKTELEDNLSKNNGQWTQELETDFLESLEIELDKVYTFCKVKHSEVFRRVKEVQEQVQHTVRLLDSNNPPTQLDFEILEEELSDIIADVHDLAKFSRLNYTGFQKIIKKHDKKTGFILKPVFQVRLDSKPFFKENYDELVVKISQLYDIARTSGRPIKGDSSAGGKQQNFVRQTTKYWVHPDNITELKLIILKHLPVLVFNTNKEFEREDSAITSIYFDNENLDLYYGRLRKDEGAEAHALAWYGGMSTDTIFVERKTHREDWTGEKSVKARFALKERHVNDFLKGKYTVDQVFAKMRKEGKKPMNEIENLEALASEIQYVMLKKKLRPVVRSFYNRTAFQLPGDARVRISLDTELTMVREDNFDGVDRTHKNWRRTDIGVDWPFKQLDDKDICRFPYAVLNVKLQTQLGQEPPEWVRELVGSHLVEPVPKFSKFIHGVATLLNDKVDSIPFWLPQMDVDIRKPPLPTNIEITRPGRSDNEDNDFDEDDEDDAALVAAMTNAPGNSLDIEESVGYGATSAPTSNTNHVVESANAAYYQRKIRNAENPISKKYYEIVAFFDHYFNGDQISKIPKGTTFDTQIRAPPGKTICVPVRVEPKVYFATERTYLSWLSISILLGGVSTTLLTYGSPTAMIGSIGFFITSLAVLIRTVMVYAKRVVNIRLKRAVDYEDKIGPGMVSVFLILSILFSFFCNLVAK
notes: Vtc4, yeast, UniProt P47075; codon-optimized DNA in the pMlink vector; three substitutions in the TTM domain; also called catalytically impaired Vtc4; source: Expi293F cells, transiently cotransfected with the Vtc1 and Vtc3 plasmids; purified as part of the VTC complex with 1 mM InsP6 (anti-Flag resin, Strep-Tactin resin, SEC); not shown: 2×Strep, C-terminal, kept

Key:
[1] = target: T1, Vtc1/Vtc3/Vtc4 complex (VTC complex); test: polyP synthesis, TBE-PAGE and DAPI; format: biochemical; settings: 15 mM ATP, 10 mM MgCl2, 1 mM MnCl2, 0.5 mM pyrophosphate, InsP6, 27 °C, 4 h
[2] = target: the molecule itself; test: cryo-EM structure; Vtc1/Vtc3/Vtc4_(R264A/R266A/E426N) complex co-expressed in Expi293F and purified with 1 mM InsP6, 0.02% GDN, 25 mM Tris-HCl pH 8.0, 150 mM NaCl; 3.0 Å
Vtc4_(R264A/R266A/E426N) = target: B1; test: as above; settings: both partners purified
Vtc3 = target: T2, Vtc3; test: as above; settings: both partners purified

stoichiometry N (Vtc4_(R264A/R266A/E426N)) | stoichiometry N (Vtc3) | Molecule | polyP synthesis, TBE-PAGE and DAPI [1] | stoichiometry N [2]
– | – | Nc1ncnc2c1ncn2[C@@H]1O[C@H](COP(=O)(O)OP(=O)(O)OP(=O)(O)O)[C@@H](O)[C@H]1O [ATP] | we incubated VTC complex with ATP and InsP6 | –
3 | 3 | Vtc1 (natural protein, Baker's yeast, Vtc1, yeast, UniProt P40046; codon-optimized DNA in the pMlink vector; Three copies of Vtc1 stand in the Vtc1/Vtc3/Vtc4 complex (3:1:1); also called Vtc1A; Vtc1B; source: Expi293F cells, transiently cotransfected with the Vtc3 and Vtc4 plasmids; purified as part of the VTC complex (anti-Flag resin, Strep-Tactin resin; SEC for the cryo-EM sample)) SSAPLLQRTPGKKIALPTRVEPKVFFANERTFLSWLNFTVMLGGLGVGLLNFGDKIGRVSAGLFTFVAMGTMIYALVTYHWRAAAIRRRGSGPYDDRLGPTLLCFFLLVAVIINFILRLKYNDANTKL | – | 3
– | 1 | B1 | – | –

Source: PMC9911596 (Nature Communications, 2023)
